Test results taken from paper PMC5940811, “The lactose operon from Lactobacillus casei is involved in the transport and metabolism of the human milk oligosaccharide core-2 N-acetyllactosamine” (Scientific Reports, 2018).

Substrate: O=[N+]([O-])c1ccccc1O[C@@H]1O[C@H](COP(=O)(O)O)[C@H](O)[C@H](O)[C@H]1O
Assay: purified protein
Type: biochemical, Lacticaseibacillus casei
Settings: activity assay in 100 mM Tris-HCl pH 7.0, 37 °C, kinetics as in cited earlier work

B1: phospho-β-galactosidase LacG; 6x(His)LacG (Lacticaseibacillus casei BL23) (protein)
chain: MSKQLPQDFVMGGATAAYQVEGATKEDGKGRVLWDDFLDKQGRFKPDPAADFYHRYDEDLALAEKYGHQVIRVSIAWSRIFPDGAGEVEPRGVAFYHKLFADCAAHHIEPFVTLHHFDTPERLHEAGDWLSQEMLDDFVAYAKFCFEEFSEVKYWITINEPTSMAVQQYTSGTFPPAESGRFDKTFQAEHNQMVAHARIVNLYKSMQLGGQIGIVHALQTVYPYSDSAVDHHAAELQDALENRLYLDGTLAGEYHQETLALVKEILDANHQPMFQSTPQEMKAIDEAAHQLDFVGVNNYFSKWLRAYHGKSETIHNGDGTKGSSVARLQGVGEEKLPDGIETTDWDWSIYPRGMYDILMRIHNDYPLVPVTYVTENGIGLKESLPENATPDTVIEDPKRIDYVKKYLSAMADAIHDGANVKGYFIWSLQDQFSWTNGYSKRYGLFFVDFPTQNRYIKQSAEWFKSVSETHIIPD
notes: full coding region in pQE80 (BamHI/PstI), 6xHis tag (N-terminal by vector), E. coli BE50 host, purified; 55 kDa, calculated tagged mass 55,305 Da
Km: 3000 µM
